Drawing on paper PMC3500560, this text covers binding relative to SYD-2LH1 (percent) for one substance.

The experiment concerns the target His6-tagged SYD-2LH1 (C. elegans) (UniProt Q21049). The experiment in a line: pull-down.

Chain of His6-tagged SYD-2LH1 (C. elegans) (Q21049 91-217): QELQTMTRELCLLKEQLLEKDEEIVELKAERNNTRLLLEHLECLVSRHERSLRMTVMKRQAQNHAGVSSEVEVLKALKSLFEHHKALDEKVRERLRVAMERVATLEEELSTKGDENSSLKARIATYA

Turning to “GST-LH1Δ (Δ179–198) (from UniProt Q21049 1-1139) (domain or fragment)”, the binding relative to SYD-2LH1 (percent) was less than 10%.
